In patent CN116023492A (XINJIANG YOUMAI BIOTECHNOLOGY CO LTD, dated 2023):

Biological target: T1, 人PDL1蛋白 (human, UniProt Q9NZQ7 19-239, limits assumed)
T1 construct: Bought recombinant protein; also called human PDL1; B7-H1
Assay: non-competitive ELISA, four coating concentrations of PDL1 (1, 0.5, 0.25, 0.125 ug/mL), KA=(n-1)/(nAb'-Ab), mean of 6 values

T1 sequence (Q9NZQ7 19-239 limits assumed): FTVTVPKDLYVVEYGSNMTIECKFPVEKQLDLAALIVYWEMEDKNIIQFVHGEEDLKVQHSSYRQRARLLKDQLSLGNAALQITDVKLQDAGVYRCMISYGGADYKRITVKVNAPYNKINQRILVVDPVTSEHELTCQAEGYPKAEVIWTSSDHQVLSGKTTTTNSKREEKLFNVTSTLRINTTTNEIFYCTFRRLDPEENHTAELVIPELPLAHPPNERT

Ka: 933000 M⁻¹
B1: 抗人PDL1纳米抗体 Nb2 (VHH)
VHH: QVQLQESGGGSVQAGGSLRLSCIASGVDYNSRTDRMAWFRQVPGKEREGVAAIYTYNNRTYYADSVKGRFTISQDIGKNTVYLQMNSLEPEDTATYYCARDWRFSSGMLDKNMYKYWGQGTQVTVSS
notes: Expressed from pMECS in E. coli TG1, Ni-purified; also called 抗PDL1(Nb2)纳米抗体; not shown: C-terminal HA and His tags from the pMECS vector
